Laboratory results from PMC4900556, “Connexin43 Forms Supramolecular Complexes through Non-Overlapping Binding Sites for Drebrin, Tubulin, and ZO-1” (PLoS ONE, 2016).

What was measured:
[1] = biological target: T1, 15N-labeled Cx43-CT^234-382 (WT), GST tag cleaved (UniProt P08050 234-382, 15N-labeled); experiment: NMR titration; 15N-HSQC, 600 MHz; 15N-labeled Cx43-CT constant at 50 μM in 1X PBS pH 7.5, unlabeled Drb^1-300 added from 50 to 700 μM; KD by nonlinear fitting of the decrease in signal intensity of at least three residues of each area; conditions: both partners purified
T1 construct: Construct used in the NMR titrations; source: E. coli BL21 DE3, purified (glutathione agarose), GST tag cleaved on the beads with Turbo 3C

[2] = biological target: 15N-labeled Cx43CT^234-382 Y265D, GST tag cleaved (UniProt P08050); experiment: as above
[3] = biological target: 15N-labeled Cx43CT^234-382 Y265D, GST tag cleaved (UniProt P08050 234-382, Y265D, 15N-labeled); experiment: NMR; Area 3 (residues K303, N312, S314)

T1 sequence (P08050 234-382): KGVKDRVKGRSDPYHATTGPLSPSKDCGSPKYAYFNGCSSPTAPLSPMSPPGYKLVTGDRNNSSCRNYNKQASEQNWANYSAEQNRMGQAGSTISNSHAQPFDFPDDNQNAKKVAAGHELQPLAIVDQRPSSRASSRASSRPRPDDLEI
Chain of 15N-labeled Cx43CT^234-382 Y265D, GST tag cleaved (UniProt P08050) (P08050 234-382 Y265D): as the sequence (P08050 234-382) above, with Y32D counted along it

B1: Drebrin A 1–300 (Drb^1-300), untagged (domain or fragment, UniProt Q9QXS6 1-300, looked up)
chain: MAGVSFSGHRLELLAAYEEVIREESAADWALYTYEDGSDDLKLAASGEGGLQELSGHFENQKVMYGFCSVKDSQAALPKYVLINWVGEDVPDARKCACASHVAKVAEFFQGVDVIVNASSVEDIDAGAIGQRLSNGLARLSSPVLHRLRLREDENAEPVGTTYQKTDAAVEMKRINREQFWEQAKKEEELRKEEERKKALDARLRFEQERMEQERQEQEERERRYREREQQIEEHRRKQQSLEAEEAKRRLKEQSIFGDQRDEEEESQMKKSESEVEEAAAIIAQRPDNPREFFRQQERV
notes: Drebrin A residues 1-300; also called drebrin amino acids 1–300; N-terminal fragment of drebrin; source: E. coli Rosetta cells, purified on glutathione-agarose column, GST tag digested and captured with a Thrombin kit
KD of Area 1 (264–275) [1]: 283 µM | KD of Area 2 (282–290) [1]: 279 µM | KD of Area 3 (299–321) [1]: 344 µM | KD of Area 3 [2]: 500 µM | Kd [3]: 466 µM
